# Experimental data: patent publication US20210115124A1 (Genentech, published 2021)
# T1: human VEGF (hVEGF) (human, UniProt P15692 181-395)
# T1 construct: also called VEGF-A
# T1 sequence: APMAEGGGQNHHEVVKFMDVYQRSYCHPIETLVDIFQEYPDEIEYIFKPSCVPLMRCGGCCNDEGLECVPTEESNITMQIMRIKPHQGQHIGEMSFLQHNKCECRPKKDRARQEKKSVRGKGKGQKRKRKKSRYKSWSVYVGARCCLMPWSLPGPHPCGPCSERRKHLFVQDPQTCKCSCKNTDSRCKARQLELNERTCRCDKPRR
# Molecular target: T1, human VEGF (hVEGF)
# Experiment: SPR single-cycle;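 also: fab variants injected over hVEGF immobilized on a CM5 chip (Biacore T200), threefold dilution series from 0.02 to 50 nM, kinetics fitted with a 1:1 Langmuir model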
# From the text: To determine the binding affinity of selected Fab variants, SPR measurement with a BIACORE® T200 instrument was used. Briefly, series S sensor chip CM5 was activated with 1-ethyl-3-(3-dimethylaminopropyl) carbodiimide (EDC) and N-hydroxysuccinimide (NHS) reagents according to the supplier's instructions, and human VEGF (hVEGF) was coupled to achieve 50-80 response units (RU), then following by blocking un-reacted groups with 1M ethanolamine.
# Three-fold serial dilutions of Fab in HBS-P buffer (0.01 M HEPES pH 7.4, 0.15 M NaCl, 0.005% surfactant P20) from low (0.02 nM) to high (50 nM) were injected (flow rate: 30 μl/min). The binding responses on hVEGF were corrected by subtracting of RU from a blank flow cell. The sensorgram was recorded and subject to reference and buffer subtraction before evaluating by BIACORE® T200 Evaluation Software (version 2.0). Association rates (kₒₙ) and dissociation rates (koff) were calculated using a simple one-to-one Langmuir binding model. The equilibrium dissociation constant (Kd) was calculated as the ratio koff/kₒₙ.
Binder,Fold change (relative to G6.31) [fold],Kd [nM],koff [s⁻¹],kon [M⁻¹ s⁻¹]
"G6.31 HC-A60E (Fab, name in Kabat numbering, V domains shown, Fab) VH: EVQLVESGGGLVQPGGSLRLSCAASGFTISDYWIHWVRQAPGKGLEWVAGITPAGGYTYYEDSVKGRFTISADTSKNTAYLQMNSLRAEDTAVYYCARFVFFLPYAMDYWGQGTLVTVSS VL: DIQMTQSPSSLSASVGDRVTITCRASQDVSTAVAWYQQKPGKAPKLLIYSASFLYSGVPSRFSGSGSGTDFTLTISSLQPEDFATYYCQQGYGNPFTFGQGTKVEIK",1.6,1.08,0.000565,524000
"G6.31 HC-A71E (Fab, name in Kabat numbering, V domains shown, Fab) VH: EVQLVESGGGLVQPGGSLRLSCAASGFTISDYWIHWVRQAPGKGLEWVAGITPAGGYTYYADSVKGRFTISEDTSKNTAYLQMNSLRAEDTAVYYCARFVFFLPYAMDYWGQGTLVTVSS VL: DIQMTQSPSSLSASVGDRVTITCRASQDVSTAVAWYQQKPGKAPKLLIYSASFLYSGVPSRFSGSGSGTDFTLTISSLQPEDFATYYCQQGYGNPFTFGQGTKVEIK",1.1,1.48,0.000379,257000
"G6.31 HC-G65E (Fab, name in Kabat numbering, V domains shown, Fab) VH: EVQLVESGGGLVQPGGSLRLSCAASGFTISDYWIHWVRQAPGKGLEWVAGITPAGGYTYYADSVKERFTISADTSKNTAYLQMNSLRAEDTAVYYCARFVFFLPYAMDYWGQGTLVTVSS VL: DIQMTQSPSSLSASVGDRVTITCRASQDVSTAVAWYQQKPGKAPKLLIYSASFLYSGVPSRFSGSGSGTDFTLTISSLQPEDFATYYCQQGYGNPFTFGQGTKVEIK",1.1,1.56,0.000472,302000
"G6.31 HC-K43E (Fab, name in Kabat numbering, V domains shown, Fab) VH: EVQLVESGGGLVQPGGSLRLSCAASGFTISDYWIHWVRQAPGEGLEWVAGITPAGGYTYYADSVKGRFTISADTSKNTAYLQMNSLRAEDTAVYYCARFVFFLPYAMDYWGQGTLVTVSS VL: DIQMTQSPSSLSASVGDRVTITCRASQDVSTAVAWYQQKPGKAPKLLIYSASFLYSGVPSRFSGSGSGTDFTLTISSLQPEDFATYYCQQGYGNPFTFGQGTKVEIK",1.3,1.27,0.000482,380000
"G6.31 HC-K64E (Fab, name in Kabat numbering, V domains shown, Fab) VH: EVQLVESGGGLVQPGGSLRLSCAASGFTISDYWIHWVRQAPGKGLEWVAGITPAGGYTYYADSVEGRFTISADTSKNTAYLQMNSLRAEDTAVYYCARFVFFLPYAMDYWGQGTLVTVSS VL: DIQMTQSPSSLSASVGDRVTITCRASQDVSTAVAWYQQKPGKAPKLLIYSASFLYSGVPSRFSGSGSGTDFTLTISSLQPEDFATYYCQQGYGNPFTFGQGTKVEIK",2.4,0.715,0.000395,552000
"G6.31 HC-K75E (Fab, name in Kabat numbering, V domains shown, Fab) VH: EVQLVESGGGLVQPGGSLRLSCAASGFTISDYWIHWVRQAPGKGLEWVAGITPAGGYTYYADSVKGRFTISADTSENTAYLQMNSLRAEDTAVYYCARFVFFLPYAMDYWGQGTLVTVSS VL: DIQMTQSPSSLSASVGDRVTITCRASQDVSTAVAWYQQKPGKAPKLLIYSASFLYSGVPSRFSGSGSGTDFTLTISSLQPEDFATYYCQQGYGNPFTFGQGTKVEIK",0.8,2.04,0.000444,217000
"G6.31 HC-N76E (Fab, name in Kabat numbering, V domains shown, Fab) VH: EVQLVESGGGLVQPGGSLRLSCAASGFTISDYWIHWVRQAPGKGLEWVAGITPAGGYTYYADSVKGRFTISADTSKETAYLQMNSLRAEDTAVYYCARFVFFLPYAMDYWGQGTLVTVSS VL: DIQMTQSPSSLSASVGDRVTITCRASQDVSTAVAWYQQKPGKAPKLLIYSASFLYSGVPSRFSGSGSGTDFTLTISSLQPEDFATYYCQQGYGNPFTFGQGTKVEIK",1,1.72,0.000467,271000
"G6.31 HC-P41E (Fab, name in Kabat numbering, V domains shown, Fab) VH: EVQLVESGGGLVQPGGSLRLSCAASGFTISDYWIHWVRQAEGKGLEWVAGITPAGGYTYYADSVKGRFTISADTSKNTAYLQMNSLRAEDTAVYYCARFVFFLPYAMDYWGQGTLVTVSS VL: DIQMTQSPSSLSASVGDRVTITCRASQDVSTAVAWYQQKPGKAPKLLIYSASFLYSGVPSRFSGSGSGTDFTLTISSLQPEDFATYYCQQGYGNPFTFGQGTKVEIK",0.5,3.6,0.000548,152000
"G6.31 HC-P41R (Fab, name in Kabat numbering, V domains shown, Fab) VH: EVQLVESGGGLVQPGGSLRLSCAASGFTISDYWIHWVRQARGKGLEWVAGITPAGGYTYYADSVKGRFTISADTSKNTAYLQMNSLRAEDTAVYYCARFVFFLPYAMDYWGQGTLVTVSS VL: DIQMTQSPSSLSASVGDRVTITCRASQDVSTAVAWYQQKPGKAPKLLIYSASFLYSGVPSRFSGSGSGTDFTLTISSLQPEDFATYYCQQGYGNPFTFGQGTKVEIK",1.8,0.97,0.000554,571000
"G6.31 HC-Q81E (Fab, name in Kabat numbering, V domains shown, Fab) VH: EVQLVESGGGLVQPGGSLRLSCAASGFTISDYWIHWVRQAPGKGLEWVAGITPAGGYTYYADSVKGRFTISADTSKNTAYLEMNSLRAEDTAVYYCARFVFFLPYAMDYWGQGTLVTVSS VL: DIQMTQSPSSLSASVGDRVTITCRASQDVSTAVAWYQQKPGKAPKLLIYSASFLYSGVPSRFSGSGSGTDFTLTISSLQPEDFATYYCQQGYGNPFTFGQGTKVEIK",0.8,2.2,0.000495,225000
"G6.31 HC-S30E (Fab, name in Kabat numbering, V domains shown, Fab) VH: EVQLVESGGGLVQPGGSLRLSCAASGFTIEDYWIHWVRQAPGKGLEWVAGITPAGGYTYYADSVKGRFTISADTSKNTAYLQMNSLRAEDTAVYYCARFVFFLPYAMDYWGQGTLVTVSS VL: DIQMTQSPSSLSASVGDRVTITCRASQDVSTAVAWYQQKPGKAPKLLIYSASFLYSGVPSRFSGSGSGTDFTLTISSLQPEDFATYYCQQGYGNPFTFGQGTKVEIK",0.2,7.1,0.000558,78500
"G6.31 HC-S74E (Fab, name in Kabat numbering, V domains shown, Fab) VH: EVQLVESGGGLVQPGGSLRLSCAASGFTISDYWIHWVRQAPGKGLEWVAGITPAGGYTYYADSVKGRFTISADTEKNTAYLQMNSLRAEDTAVYYCARFVFFLPYAMDYWGQGTLVTVSS VL: DIQMTQSPSSLSASVGDRVTITCRASQDVSTAVAWYQQKPGKAPKLLIYSASFLYSGVPSRFSGSGSGTDFTLTISSLQPEDFATYYCQQGYGNPFTFGQGTKVEIK",0.8,2.11,0.000499,236000
"G6.31 HC-S82bE (Fab, name in Kabat numbering, V domains shown, Fab) VH: EVQLVESGGGLVQPGGSLRLSCAASGFTISDYWIHWVRQAPGKGLEWVAGITPAGGYTYYADSVKGRFTISADTSKNTAYLQMNELRAEDTAVYYCARFVFFLPYAMDYWGQGTLVTVSS VL: DIQMTQSPSSLSASVGDRVTITCRASQDVSTAVAWYQQKPGKAPKLLIYSASFLYSGVPSRFSGSGSGTDFTLTISSLQPEDFATYYCQQGYGNPFTFGQGTKVEIK",1.7,0.991,0.000433,437000
"G6.31 HC-T28E (Fab, name in Kabat numbering, V domains shown, Fab) VH: EVQLVESGGGLVQPGGSLRLSCAASGFEISDYWIHWVRQAPGKGLEWVAGITPAGGYTYYADSVKGRFTISADTSKNTAYLQMNSLRAEDTAVYYCARFVFFLPYAMDYWGQGTLVTVSS VL: DIQMTQSPSSLSASVGDRVTITCRASQDVSTAVAWYQQKPGKAPKLLIYSASFLYSGVPSRFSGSGSGTDFTLTISSLQPEDFATYYCQQGYGNPFTFGQGTKVEIK",3,0.566,0.000352,621000
"G6.31 HC-T28K (Fab, name in Kabat numbering, V domains shown, Fab) VH: EVQLVESGGGLVQPGGSLRLSCAASGFKISDYWIHWVRQAPGKGLEWVAGITPAGGYTYYADSVKGRFTISADTSKNTAYLQMNSLRAEDTAVYYCARFVFFLPYAMDYWGQGTLVTVSS VL: DIQMTQSPSSLSASVGDRVTITCRASQDVSTAVAWYQQKPGKAPKLLIYSASFLYSGVPSRFSGSGSGTDFTLTISSLQPEDFATYYCQQGYGNPFTFGQGTKVEIK",4,0.42,0.00041,975000
"G6.31 HC-T68E (Fab, name in Kabat numbering, V domains shown, Fab) VH: EVQLVESGGGLVQPGGSLRLSCAASGFTISDYWIHWVRQAPGKGLEWVAGITPAGGYTYYADSVKGRFEISADTSKNTAYLQMNSLRAEDTAVYYCARFVFFLPYAMDYWGQGTLVTVSS VL: DIQMTQSPSSLSASVGDRVTITCRASQDVSTAVAWYQQKPGKAPKLLIYSASFLYSGVPSRFSGSGSGTDFTLTISSLQPEDFATYYCQQGYGNPFTFGQGTKVEIK",0.8,2.05,0.00044,215000
"G6.31 HC-T68K (Fab, name in Kabat numbering, V domains shown, Fab) VH: EVQLVESGGGLVQPGGSLRLSCAASGFTISDYWIHWVRQAPGKGLEWVAGITPAGGYTYYADSVKGRFKISADTSKNTAYLQMNSLRAEDTAVYYCARFVFFLPYAMDYWGQGTLVTVSS VL: DIQMTQSPSSLSASVGDRVTITCRASQDVSTAVAWYQQKPGKAPKLLIYSASFLYSGVPSRFSGSGSGTDFTLTISSLQPEDFATYYCQQGYGNPFTFGQGTKVEIK",1.3,1.29,0.000513,397000
"G6.31 HC-T73E (Fab, name in Kabat numbering, V domains shown, Fab) VH: EVQLVESGGGLVQPGGSLRLSCAASGFTISDYWIHWVRQAPGKGLEWVAGITPAGGYTYYADSVKGRFTISADESKNTAYLQMNSLRAEDTAVYYCARFVFFLPYAMDYWGQGTLVTVSS VL: DIQMTQSPSSLSASVGDRVTITCRASQDVSTAVAWYQQKPGKAPKLLIYSASFLYSGVPSRFSGSGSGTDFTLTISSLQPEDFATYYCQQGYGNPFTFGQGTKVEIK",2.2,0.788,0.000434,550000
